Patent US20160168225A1 (Sanofi, published 2016)
Square brackets hold non-standard residues; d marks the D form. Ends that are not written are not given here. Aib = CC(C)(N)C(=O)O

Molecular target: human GLP-1 receptor (human, UniProt P43220 24-463)
Assay: cell-based or functional assay

## H[Aib]QGTFTSDLSKQLDEQRA[(S)MeLys]DFIEWLIAGGPSSGAPPPS-NH2 [SEQ ID NO: 14]
  EC50 hGLP-1R (cAMP formation, HTRF, HEK-293 cells): 1 pM
